Data on one substance can be found in US20190024095A1.

In the experiment the target is CD19 on Raji B cells (UniProt P15391). Kind of experiment: cell-based or functional assay.
Chain of UniProt P15391 (P15391 20-556 limits assumed): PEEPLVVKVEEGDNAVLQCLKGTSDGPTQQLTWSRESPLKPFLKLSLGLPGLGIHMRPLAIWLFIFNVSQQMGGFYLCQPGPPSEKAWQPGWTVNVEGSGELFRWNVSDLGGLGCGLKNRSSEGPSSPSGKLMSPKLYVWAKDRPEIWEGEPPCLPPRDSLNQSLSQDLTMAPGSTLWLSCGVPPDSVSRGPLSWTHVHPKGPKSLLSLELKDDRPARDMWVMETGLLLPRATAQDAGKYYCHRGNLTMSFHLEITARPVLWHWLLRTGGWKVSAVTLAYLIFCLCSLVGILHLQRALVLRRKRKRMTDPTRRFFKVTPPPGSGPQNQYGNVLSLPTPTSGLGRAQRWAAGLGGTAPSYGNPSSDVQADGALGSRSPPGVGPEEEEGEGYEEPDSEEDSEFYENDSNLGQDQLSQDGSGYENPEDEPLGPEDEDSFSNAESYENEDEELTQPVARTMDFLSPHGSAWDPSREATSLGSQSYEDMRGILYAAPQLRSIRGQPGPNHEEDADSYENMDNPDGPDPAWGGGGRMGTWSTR

As to “anti-CD19 CAR (anti-CD19 CAR cassette as described in WO 2012/079000), expressed on transduced T-cells”, the change in IL-12 expression (NFAT promoter, 3'-UTR not responsive to CAR stimulation) was determined as 50 fold; the change in IL-12 expression (NFAT promoter, RDE1 (Gold1)) came out at 168 fold; the change in IL-12 expression (minP promoter, RDE1 (Gold1)) is 6.3 fold; the change in activated cells in the population (CD25, CD69; GFP-RDE1 bicistronic construct) was in the range of 0.9 to 84.8%. In addition, the change in activated cells in the population (CD25, CD69; GFP-RDE2.1 bicistronic construct) fell in the range of 3.9 to 12.1%; the change in activated cells in the population (CD25, CD69; doubly transduced T-cells) was 0.9 to 56.9%; the change in activated cells in the population (CD25, CD69; singly transduced, bicistronic construct) fell in the range of 3.6 to 5.8%; the increase in bioluminescence (MinP promoter, RDE1) was found to be 4.1 fold. Also, the increase in bioluminescence (MinP promoter, RDE2) was determined as 1.8 fold; the increase in bioluminescence (MinP promoter, RDE3) is 1.4 fold; the increase in bioluminescence (NFAT promoter, RDE1) is 8.5 fold; the increase in bioluminescence (NFAT promoter, RDE2) worked out at 3.1 fold. Further, the increase in bioluminescence (NFAT promoter, RDE3) worked out at 1.3 fold; the increase in fluorescence (GFP-RDE1) is 6.5%; the increase in fluorescence (GFP-RDE2, doubly transduced T-cells) was 19.5 to 42.5%.
